{"source": "paper PMC517709", "data": [{"system": "a1;alpha2 (Saccharomyces cerevisiae;Saccharomyces cerevisiae)", "assay": "EMSA", "conditions": "1.4 uM a1 constant, 5-fold dilutions of alpha2 from 82 nM, protein dilution buffer 50 mM Tris pH 7.6, 1 mM EDTA, 500 mM NaCl, 10 mM 2-mercaptoethanol …", "values": [{"substance": "CDC25 ORF site", "binding signal (fold decrease in affinity vs HO(10))": 5}, {"substance": "PRM8 ORF site", "binding signal (fold decrease in affinity vs HO(10))": 5}, {"substance": "PRM9 ORF site", "binding signal (fold decrease in affinity vs HO(10))": 10}, {"substance": "URB1 ORF site", "binding signal (fold decrease in affinity vs HO(10))": 25}, {"substance": "YKL162C ORF site", "binding signal (fold decrease in affinity vs HO(10))": 10}]}]}
